Source: patent US20060252116A1 (published 2006)
Values belong to the binder of their own block, whether it stands above or below them. Ends that are not written are not given here.

How the values were obtained:
[1] = target: T1, αv integrins (as found on HT1080 cells) (UniProt P06756 31-1048); assay: HT1080 cell adhesion to coated human ICAM-4Fc (5 ug/ml), peptide 750 uM; competitor human ICAM-4Fc
T1 construct: whole, on cells; also called αv integrin ligand
Method: (§1) Human ICAM-4Fc was coated at a concentration of 5 μg/ml, peptides were used at 750 μM final concentration for each peptide, and each data point is the mean of two independent assays.
(§2) Cell adhesion assays were performed as described in Spring et al. 2001 (supra). Immulon4 96 well plates (Dynex Technologies, Billingshurst, United Kingdom) were coated with 1 μg/well goat-antihuman-Fc (Sigma, Poole, United Kingdom) for 24 hours at 4° C., washed three times with PBS and coated with an Fc fusion ICAM-4 protein for 18 hours at 4° C. before blocking with 0.4% BSA PBS for 2 hours at 22° C. Cells were labelled with 10 μg/ml 2′,7′-bis-(2-carboxyethyl)-5-(and-6-) carboxyfluorescein acetoxymethyl ester in assay buffer (IMEM, 2 mM EGTA, 10 μg/ml human ivIgG) for 15 minutes at 37° C. HT1080 cells were activated with 80 μM phorbol myristate acetate prior to both cells being washed with assay buffer containing 2 mM Mn²⁺. Cells, at 5×10⁴ cells per well, were added to the ICAM-4Fc-coated plates for 30 minutes at 37° C., prior to being given repeated washes in assay buffer and read on a fluorescence microplate reader (excitation 485 nm, emission 530 nm). The percentage of bound cells was calculated after each wash. Peptide inhibition was performed by incubating the cells with 500 μM peptide at 0° C. for 15 minutes ahead of their addition, still in the presence of 500 μM peptide to the ICAM-4Fc coated plates. In peptide inhibition studies the appropriate ICAM-4Fc coating concentration for each cell line was pre-determined by titration of ICAM-4Fc and the lowest concentration at which maximal binding was achieved was used to coat the plates

[2] = target: T1, αv integrins (as found on HT1080 cells); assay: HT1080 cell adhesion to coated human ICAM-4Fc (7.5 ug/ml), peptide 500 uM; competitor human ICAM-4Fc
Method: FIG. 10. […] Human ICAM-4Fc was coated at a concentration of 7.5 μg/ml, peptides were used at 500 μM final concentration for each peptide, and each data point is the mean of three independent assays.
as §2, with “plates.” for “plates. In peptide inhibition studies the appropriate ICAM-4Fc coating concentration for each cell line was pre-determined by titration of ICAM-4Fc and the lowest concentration at which maximal binding was achieved was used to coat the plates”

[3] = target: T1, αv integrins (as found on HT1080 cells); assay: HT1080 cell adhesion to coated murine ICAM-4Fc (5 ug/ml), peptide 500 uM; competitor murine ICAM-4Fc
Method: FIG. 14. […] Murine ICAM-4Fc was coated at a concentration of 5 μg/ml, peptides were used at 500 μM final concentration for each peptide, and each data point is the mean of two independent assays.
as §2, with “plates.” for “plates. In peptide inhibition studies the appropriate ICAM-4Fc coating concentration for each cell line was pre-determined by titration of ICAM-4Fc and the lowest concentration at which maximal binding was achieved was used to coat the plates”

αLβ2 integrin = target: T2, αLβ2 integrin (UniProt P20701 26-1170; P05107 23-769); assay: neutrophil adhesion to coated ICAM-4Fc with blocking integrin antibodies
T2 construct: whole, on cells; also called LFA-1; β2 integrins
Method: (§3) Utilising blocking β integrin subunit antibodies and our blocking ICAM-4 peptides (i.e., SEQ ID NOs: 9, 10, 11 and 13—see Example 1) in a microplate neutrophil adhesion assay. Neutrophils were purified from buffy coats (obtained from the National Blood Service, Bristol, UK) as described in Henderson et al. (1987, Biochem. J. 246: 325-329). Cell adhesion assays were performed as described in Example 1 above. […] Neutrophils were labelled with 10 μg/ml 2′,7′-bis-(2-carboxyethyl)-5-(and-6-)carboxyfluorescein acetoxymethyl ester (Sigma, Poole, UK) in assay buffer (Iscoves modified Eagle medium, 2 mM EGTA, 0.1% BSA for 15 minutes at 37° C. Neutrophils were washed with assay buffer containing 2 mM Mn²⁺. Neutrophils, at 5×10⁵ cells per well, were added to the ICAM-4Fc-coated plates for 10 minutes at 37° C., prior to being cyclically read on a fluorescence microplate reader (excitation 485 nm, emission 530 nm) and washed in assay buffer. The percentage of bound cells was calculated after each wash. Peptide and antibody inhibition was performed by incubating the cells with 500 μM peptide and 25 μg/ml antibody at 0° C. for 15 minutes before their addition to the ICAM-4 Fc coated plates. […]

αMβ2 integrin = αMβ2 integrin (UniProt P11215 17-1152; P05107 23-769); assay: as above
Method: as §3

[4] = target: T1, αv integrins (as found on HT1080 cells); assay: HT1080 cell adhesion to coated human ICAM-4Fc (5 ug/ml); value is for the MIXTURE of SEQ ID NO: 9, 10 and 11, each peptide 750 uM
Method: as §1, §2

[5] = target: T1, αv integrins (as found on HT1080 cells); assay: HT1080 cell adhesion to coated human ICAM-4Fc (5 ug/ml); value is for the MIXTURE with control peptide SEQ ID NO: 13, each peptide 750 uM
Method: as §1, §2

T1 sequence (P06756 31-1048): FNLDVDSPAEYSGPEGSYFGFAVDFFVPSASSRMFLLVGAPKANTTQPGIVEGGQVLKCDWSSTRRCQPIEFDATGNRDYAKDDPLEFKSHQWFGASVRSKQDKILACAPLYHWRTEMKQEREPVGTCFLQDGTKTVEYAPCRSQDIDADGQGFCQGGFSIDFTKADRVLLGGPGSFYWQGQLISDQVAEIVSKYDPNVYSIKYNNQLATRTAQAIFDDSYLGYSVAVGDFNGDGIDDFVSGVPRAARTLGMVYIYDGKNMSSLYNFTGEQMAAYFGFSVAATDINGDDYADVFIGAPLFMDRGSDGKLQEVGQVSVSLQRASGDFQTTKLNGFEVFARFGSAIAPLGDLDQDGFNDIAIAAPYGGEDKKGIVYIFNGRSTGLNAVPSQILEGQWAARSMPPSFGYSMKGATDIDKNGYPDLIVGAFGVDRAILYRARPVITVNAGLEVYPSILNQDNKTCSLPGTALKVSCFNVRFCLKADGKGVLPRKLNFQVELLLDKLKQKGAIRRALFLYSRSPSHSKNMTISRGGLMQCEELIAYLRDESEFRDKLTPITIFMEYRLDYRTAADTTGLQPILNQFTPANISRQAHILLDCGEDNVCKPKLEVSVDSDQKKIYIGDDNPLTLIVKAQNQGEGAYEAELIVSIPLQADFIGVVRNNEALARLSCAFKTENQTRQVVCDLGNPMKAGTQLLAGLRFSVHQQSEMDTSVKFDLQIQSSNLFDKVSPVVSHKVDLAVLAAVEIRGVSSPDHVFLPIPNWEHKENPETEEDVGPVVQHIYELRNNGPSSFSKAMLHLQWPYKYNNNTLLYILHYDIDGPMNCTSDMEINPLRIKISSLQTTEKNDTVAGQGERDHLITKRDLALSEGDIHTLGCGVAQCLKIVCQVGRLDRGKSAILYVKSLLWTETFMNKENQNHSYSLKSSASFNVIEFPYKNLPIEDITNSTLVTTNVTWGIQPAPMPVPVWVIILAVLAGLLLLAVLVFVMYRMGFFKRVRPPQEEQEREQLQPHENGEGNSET

B1: rqgktlrgp peptide (SEQ ID NO: 13) (peptide)
peptide: RQGKTLRGP
notes: Control peptide; nine residues of the D strand of domain 1 of mature human ICAM-4, starting at R56; also called D strand peptide
input cells bound as % of binding to ICAM-4Fc in the absence of peptides [1]: 96% | input cells bound as % of binding to ICAM-4Fc in the absence of peptides [2]: 97% | input cells bound as % of binding to murine ICAM-4Fc in the absence of peptides [3]: 92%

B2: human ICAM-4Fc (Fc fusion)
chain: AQSPKGSPLAPSGTSVPFWVRMSPEFVAVQPGKSVQLNCSNSCPQPQNSSLRTPLRQGKTLRGPGWVSYQLLDVRAWSSLAHCLVTCAGKTRWATSRITAYKPPHSVILEPPVLKGRKYTLRCHVTQVFPVGYLVVTLRHGSRVIYSESLERFTGLDLANVTLTYEFAAGPRDFWQPVICHARLNLDGLVVRNSSAPITLMLAWSPAPTA
notes: Expressed in COS-7 cells, purified on protein A; also called Fc fusion ICAM-4 protein; wild-type ICAM-4Fc; not shown: Fc part from the pIg vector
binding result (αLβ2 integrin): binds | binding result (αMβ2 integrin): binds

B3: aWssLahcl peptide (SEQ ID NO: 11) (peptide)
peptide: AWSSLAHCL
notes: Nine residues of the F strand of domain 1 of mature human ICAM-4, starting at A76; also called F strand peptide
input cells bound as % of binding to ICAM-4Fc in the absence of peptides [1]: 71% | input cells bound as % of binding to ICAM-4Fc in the absence of peptides [4]: 52% | input cells bound as % of binding to ICAM-4Fc in the absence of peptides [5]: 64%

The next lines start with the values.

input cells bound as % of binding to ICAM-4Fc in the absence of peptides [1]: 41% | input cells bound as % of binding to ICAM-4Fc in the absence of peptides [2]: 46% | input cells bound as % of binding to murine ICAM-4Fc in the absence of peptides [3]: 60% | input cells bound as % of binding to ICAM-4Fc in the absence of peptides [4]: 52% | input cells bound as % of binding to ICAM-4Fc in the absence of peptides [5]: 40%
B4: svpFWVrms peptide (SEQ ID NO: 9) (peptide)
peptide: SVPFWVRMS
notes: Nine residues of the A strand of domain 1 of mature human ICAM-4, starting at S15; also called A strand peptide

input cells bound as % of binding to ICAM-4Fc in the absence of peptides [1]: 42% | input cells bound as % of binding to ICAM-4Fc in the absence of peptides [2]: 60% | input cells bound as % of binding to murine ICAM-4Fc in the absence of peptides [3]: 80% | input cells bound as % of binding to ICAM-4Fc in the absence of peptides [4]: 52% | input cells bound as % of binding to ICAM-4Fc in the absence of peptides [5]: 39%
B5: tRwATSRit peptide (SEQ ID NO: 10) (peptide)
peptide: TRWATSRIT
modifications: not fully specified (residues 1, 3, 8, 9)
notes: Nine residues of the G strand of domain 1 of mature human ICAM-4, starting at T91; also called G strand peptide
